Assay results published in FireProtDB (doi:10.1002/prot.24420).
“And” between values parts separate entries of the source, which are not always exact repeats. Identical values can stand only once.

B1: D595A|N715A, Q8GRA2 (parent)
chain: MKKTRFPNKLNTLNTQRVLSKNSKRFTVTLVGVFLMIFALVTSMVGAKTVFGLVESSTPNAINPDSSSEYRWYGYESYVRGHPYYKQFRVAHDLRVNLEGSRSYQVYCFNLKKAFPLGSDSSVKKWYKKHDGISTKFEDYAISPRITGDELNQKLRAVMYNGHPQNANGIMEGLEPLNAIRVTQEAVWYYSDNAPISNPDESFKRESESNLVSTSQLSLMRQALKQLIDPNLATKMPKQVPDDFQLSIFESEDKGDKYNKGYQNLLSGGLVPTKPPTPGDPPMPPNQPQTTSVLIRKYAIGDYSKLLEGATLQLTGDNVNSFQARVFSSNDIGERIELSDGTYTLTELNSPAGYSIAEPITFKVEAGKVYTIIDGKQIENPNKEIVEPYSVEAYNDFEEFSVLTTQNYAKFYYAKNKNGSSQVVYCFNADLKSPPDSEDGGKTMTPDFTTGEVKYTHIAGRDLFKYTVKPRDTDPDTFLKHIKKVIEKGYREKGQAIEYSGLTETQLRAATQLAIYYFTDSAELDKDKLKDYHGFGDMNDSTLAVAKILVEYAQDSNPPQLTDLDFFIPNNNKYQSLIGTQWHPEDLVDIIRMEDKKEVIPVTHNLTLRKTVTGLAGDRTKDFHFEIELKNNKQELLSQTVKTDKTNLEFKDGKATINLKHGESLTLQGLPEGYSYLVKETDSEGYKVKVNSQEVANATVSKTGITSDETLAFENNKEPVVPTGVDQKINGYLALIVIAGISLGIWGIHTIRIRKHD

Variants of: B1
Conditions: Streptococcus pyogenes; pH 7.2; Thermal; CD; Potassium phosphate 50mM; structure 2XIC; whole UniProt chain shown

Row | Variant | unfolding enthalpy (van 't Hoff) | change of melting temperature, mutant - wild type (higher = more stable)
1 | D595A N715A | 62.1 kcal/mol and 71.4 kcal/mol | –
2 | D595A | 108 kcal/mol and 115 kcal/mol | –
3 | C426A | 113 kcal/mol and 123 kcal/mol | -1.7 °C and 0.2 °C
4 | N715A | 147 kcal/mol and 85.9 kcal/mol | –
